Values belong to the sequence of their own block, whether it stands above or below them.
Assays:
HLA-C*14:02 = test: IEDB peptide-MHC binding, purified MHC/direct/fluorescence; filed as Kd, often an IC50 or EC50 that approximates it; ≥ and ≤ were set here for values at or beyond the usual limits of such assays; conditions: source organism: Mycobacterium tuberculosis str. Haarlem
HLA-A*02:01 = test: IEDB peptide-MHC binding, purified MHC/competitive/fluorescence; filed as Kd, often an IC50 or EC50 that approximates it; ≥ and ≤ were set here for values at or beyond the usual limits of such assays
HLA-A*02:03 = test: as above
HLA-A*02:11 = test: as above
HLA-A*02:12 = test: as above
HLA-A*02:19 = test: as above
HLA-A*03:01 = test: as above
HLA-A*24:03 = test: as above
HLA-A*26:01 [1] = test: as above
HLA-A*29:02 = test: as above
HLA-B*15:01 [2] = test: as above
HLA-B*15:17 = test: as above
HLA-B*18:01 = test: as above
HLA-B*27:03 [3] = test: as above
HLA-B*39:01 = test: as above
HLA-B*46:01 = test: as above
HLA-B*51:01 [4] = test: as above
HLA-B*57:01 = test: as above
HLA-A*02:16 = test: as above
HLA-A*68:02 = test: as above; conditions: source organism: Giardia lamblia ATCC 50803
HLA-A*69:01 = test: as above; conditions: source organism: Giardia lamblia ATCC 50803
HLA-A*01:01 = test: as above
HLA-B*58:01 = test: as above
HLA-A*26:01 [5] = test: IEDB peptide-MHC binding, purified MHC/direct/fluorescence; filed as Kd, often an IC50 or EC50 that approximates it; ≥ and ≤ were set here for values at or beyond the usual limits of such assays; conditions: source organism: Vibrio parahaemolyticus AQ3810
HLA-B*15:01 [6] = test: as above; conditions: source organism: Vibrio parahaemolyticus AQ3810
HLA-B*27:03 [7] = test: as above; conditions: source organism: Vibrio parahaemolyticus AQ3810
HLA-B*51:01 [8] = test: as above; conditions: source organism: Vibrio parahaemolyticus AQ3810
HLA-C*06:02 = test: as above; conditions: source organism: Homo sapiens
HLA-B*15:09 = test: as above
[9] = source organism: Giardia lamblia ATCC 50803
[10] = source organism: Bacillus cereus ATCC 4342
[11] = source organism: Escherichia coli O139:H28 str. E24377A
[12] = source organism: Francisella tularensis subsp. tularensis FSC198
[13] = source organism: Yersinia pestis Nepal516

Sequence: AAIAVGVAL
Kd (HLA-C*14:02): ≥ 20 µM

Sequence: AILAGEHKC
Kd (HLA-A*02:01; [9]): ≥ 20 µM | Kd (HLA-A*02:03; [9]): ≥ 20 µM | Kd (HLA-A*02:11; [9]): ≥ 20 µM | Kd (HLA-A*02:12; [9]): 3.73 µM | Kd (HLA-A*02:19; [9]): ≥ 20 µM | Kd (HLA-A*03:01; [9]): ≥ 20 µM | Kd (HLA-A*24:03; [9]): ≥ 20 µM | Kd (HLA-A*26:01 [1]; [9]): ≥ 20 µM | Kd (HLA-A*29:02; [9]): ≥ 20 µM | Kd (HLA-B*15:01 [2]; [9]): ≥ 20 µM | Kd (HLA-B*15:17; [9]): ≥ 20 µM | Kd (HLA-B*18:01; [9]): ≥ 20 µM | Kd (HLA-B*27:03 [3]; [9]): ≥ 20 µM | Kd (HLA-B*39:01; [9]): ≥ 20 µM | Kd (HLA-B*46:01; [9]): ≥ 20 µM | Kd (HLA-B*51:01 [4]; [9]): ≥ 20 µM | Kd (HLA-B*57:01; [9]): ≥ 20 µM

Sequence: GLFWGGIWY
Kd (HLA-A*02:01; [10]): ≥ 20 µM | Kd (HLA-A*02:03; [10]): ≥ 20 µM | Kd (HLA-A*02:11; [10]): 0.834 µM | Kd (HLA-A*02:12; [10]): ≥ 20 µM | Kd (HLA-A*02:16; [10]): 5.63 µM | Kd (HLA-A*02:19; [10]): ≥ 20 µM | Kd (HLA-A*03:01; [10]): ≥ 20 µM | Kd (HLA-A*24:03; [10]): ≥ 20 µM | Kd (HLA-A*26:01 [1]; [10]): ≥ 20 µM | Kd (HLA-B*15:01 [2]; [10]): ≥ 20 µM | Kd (HLA-B*15:17; [10]): ≥ 20 µM | Kd (HLA-B*18:01; [10]): ≥ 20 µM | Kd (HLA-B*27:03 [3]; [10]): ≥ 20 µM | Kd (HLA-B*39:01; [10]): ≥ 20 µM | Kd (HLA-B*46:01; [10]): ≥ 20 µM | Kd (HLA-B*51:01 [4]; [10]): ≥ 20 µM | Kd (HLA-B*57:01; [10]): ≥ 20 µM

Sequence: IANTTDHFF
Kd (HLA-A*02:01; [9]): ≥ 20 µM | Kd (HLA-A*02:03; [9]): ≥ 20 µM | Kd (HLA-A*02:12; [9]): ≥ 20 µM | Kd (HLA-A*02:16; [9]): ≥ 20 µM | Kd (HLA-A*02:19; [9]): ≥ 20 µM | Kd (HLA-A*03:01; [9]): ≥ 20 µM | Kd (HLA-A*24:03; [9]): ≥ 20 µM | Kd (HLA-A*26:01 [1]; [9]): ≥ 20 µM | Kd (HLA-A*68:02): ≥ 20 µM | Kd (HLA-A*69:01): ≥ 20 µM | Kd (HLA-B*18:01; [9]): ≥ 20 µM | Kd (HLA-B*27:03 [3]; [9]): ≥ 20 µM | Kd (HLA-B*39:01; [9]): ≥ 20 µM | Kd (HLA-B*51:01 [4]; [9]): ≥ 20 µM | Kd (HLA-B*57:01; [9]): 0.159 µM

Sequence: ISKANWMTY
Kd (HLA-A*02:01; [9]): ≥ 20 µM | Kd (HLA-A*02:03; [9]): ≥ 20 µM | Kd (HLA-A*02:11; [9]): ≥ 20 µM | Kd (HLA-A*02:12; [9]): ≥ 20 µM | Kd (HLA-A*02:16; [9]): ≥ 20 µM | Kd (HLA-A*02:19; [9]): ≥ 20 µM | Kd (HLA-A*03:01; [9]): ≥ 20 µM | Kd (HLA-A*24:03; [9]): ≥ 20 µM | Kd (HLA-A*26:01 [1]; [9]): ≥ 20 µM | Kd (HLA-A*68:02): ≥ 20 µM | Kd (HLA-A*69:01): ≥ 20 µM | Kd (HLA-B*18:01; [9]): ≥ 20 µM | Kd (HLA-B*27:03 [3]; [9]): ≥ 20 µM | Kd (HLA-B*39:01; [9]): ≥ 20 µM | Kd (HLA-B*51:01 [4]; [9]): ≥ 20 µM | Kd (HLA-B*57:01; [9]): 0.0837 µM

Kd (HLA-A*01:01; [11]): ≥ 20 µM | Kd (HLA-A*02:01; [11]): 0.0725 µM | Kd (HLA-B*58:01; [11]): 0.672 µM
Sequence: ITAALAWSL

Sequence: MAYGFFNNI
Kd (HLA-A*26:01 [5]): ≥ 20 µM | Kd (HLA-B*15:01 [6]): ≥ 20 µM | Kd (HLA-B*27:03 [7]): ≥ 20 µM | Kd (HLA-B*51:01 [8]): 0.03 µM

Kd (HLA-C*06:02): 0.004 µM | Kd (HLA-A*01:01; source organism: Homo sapiens): ≥ 20 µM | Kd (HLA-A*29:02; source organism: Homo sapiens): 0.109 µM
Sequence: NYIDKVRFL

Sequence: TMDVYVMIL
Kd (HLA-B*15:09; source organism: Vibrio cholerae V52): 0.384 µM | Kd (HLA-B*39:01; source organism: Vibrio cholerae MAK 757): 0.0123 µM

Sequence: TVIEGLDKL
Kd (HLA-A*02:01; [12]): 0.0884 µM | Kd (HLA-A*02:16; [12]): 0.195 µM

Sequence: YDAHHRFIL
Kd (HLA-B*15:09; source organism: Listeria monocytogenes serotype 4b str. H7858): ≥ 20 µM

Sequence: YSSPHLLRY
Kd (HLA-A*01:01; [13]): 0.0103 µM | Kd (HLA-A*03:01; [13]): 0.258 µM | Kd (HLA-B*58:01; [13]): 0.0045 µM

Source: the Immune Epitope Database (IEDB)
